Values joined by “and” are separate entries in the source; they are usually repeats but may differ in a detail not shown here. Identical values can stand only once.
Molecular target: unliganded V1/V2 loop-deleted envelope glycoproteins
Test: ELISA

**Q.** With “C34-Ig fusion protein (from UniProt P04578 628-661) (Fc fusion)” as the substance, how does the C34-Ig binding without sCD4 as percent of that with sCD4 read?
**A.** The C34-Ig binding without sCD4 as percent of that with sCD4 was 20% and 45%.
